One molecule from PMC5973619 can be followed below.

The assay deals with T1, Sun2 (human (endogenous in HeLa and RPE-1)), Q9UH99.
T1 chain: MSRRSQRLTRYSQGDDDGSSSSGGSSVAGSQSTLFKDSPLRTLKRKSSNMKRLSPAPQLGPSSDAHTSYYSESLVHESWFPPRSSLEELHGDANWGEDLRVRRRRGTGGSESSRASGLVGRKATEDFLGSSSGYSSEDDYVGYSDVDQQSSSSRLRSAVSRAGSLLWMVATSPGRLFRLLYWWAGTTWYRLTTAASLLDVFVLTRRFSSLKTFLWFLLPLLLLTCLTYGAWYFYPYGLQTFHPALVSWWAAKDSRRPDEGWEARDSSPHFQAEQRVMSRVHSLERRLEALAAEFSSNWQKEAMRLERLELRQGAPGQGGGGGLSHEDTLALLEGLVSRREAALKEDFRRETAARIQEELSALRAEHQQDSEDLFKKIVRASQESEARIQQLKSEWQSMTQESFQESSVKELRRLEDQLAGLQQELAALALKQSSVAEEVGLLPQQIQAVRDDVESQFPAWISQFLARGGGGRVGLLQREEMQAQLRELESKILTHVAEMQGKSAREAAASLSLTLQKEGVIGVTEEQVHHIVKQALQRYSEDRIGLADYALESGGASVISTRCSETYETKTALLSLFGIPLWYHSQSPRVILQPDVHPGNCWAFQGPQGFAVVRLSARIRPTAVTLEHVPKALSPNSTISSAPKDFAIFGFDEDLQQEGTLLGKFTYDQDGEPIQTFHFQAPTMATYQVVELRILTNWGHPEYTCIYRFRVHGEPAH
Kind of assay: cross-linking; HeLa cells in PBS containing .5% formaldehyde for 10min room temperature before lysis; reducing SDS-PAGE and blot for Sun1 and Sun2. The note with it: remark: other sources report otherwise.

B1: Sun2, Q9UH99 1-717 (natural protein)
chain: T1 chain
What is called stoichiometry N is a count of units in the complex or per binding partner. In the case of B1, the stoichiometry N came to 3.
